This is an account of results in paper PMC10996005 (2024).

*1 amine or outer side, *2 acyl side, *3 side chain or, on linkers, in order; H or OH if unused. [ ]: non-standard residue; d: D form. Phe(4-OMe) = COc1ccc(C[C@H](N[*:1])C(=O)[*:2])cc1; Phe(4-I) = N[C@@H](Cc1ccc(I)cc1)C(=O)O; 1Nal = N[C@@H](Cc1cccc2ccccc12)C(=O)O; hPhe = N[C@@H](CCc1ccccc1)C(=O)O; 4Pal = N[C@@H](Cc1ccncc1)C(=O)O; Phg = N[C@H](C(=O)O)c1ccccc1

Experiment [1] concerns the target T1, HIF-1α PAS-B (Homo sapiens, UniProt Q16665). Nature of the experiment: MST.
Experiment [2] addresses HIF-2α PAS-B (Homo sapiens, UniProt Q99814). Put plainly: MST.
Target sequence in this assay (Q99814 240-350): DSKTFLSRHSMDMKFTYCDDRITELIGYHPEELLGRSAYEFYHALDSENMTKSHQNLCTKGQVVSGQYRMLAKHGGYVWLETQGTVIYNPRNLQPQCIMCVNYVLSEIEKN
The target is the same in experiment [3]. Put plainly: MST. The source holds these as a separate data set.
Target sequence in this assay (Q99814 240-350 G323E): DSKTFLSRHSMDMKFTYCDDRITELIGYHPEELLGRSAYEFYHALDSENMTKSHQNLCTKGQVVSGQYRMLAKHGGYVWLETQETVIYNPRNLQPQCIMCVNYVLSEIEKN
Experiment [4] deals with T1, HIF-1α PAS-B. Put plainly: FP.

T1 sequence (Q16665 238-349): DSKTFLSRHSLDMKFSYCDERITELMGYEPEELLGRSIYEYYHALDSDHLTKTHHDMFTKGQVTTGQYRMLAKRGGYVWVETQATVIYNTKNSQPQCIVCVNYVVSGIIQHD

B1: cyclo-CRLII(D-F) (peptide)
chain: cyclo(CRLII[dF])
SMILES: CC[C@H](C)[C@@H]1NC(=O)[C@H](CC(C)C)NC(=O)[C@H](CCCNC(=N)N)NC(=O)[C@H](CS)NC(=O)[C@@H](Cc2ccccc2)NC(=O)[C@H]([C@@H](C)CC)NC1=O
The Kd is the concentration at which binding is half-saturated. Higher therefore signals lower affinity. The molecule B1 showed an equilibrium dissociation constant (Kd) in experiment [1] of 6.2 µM.

B2: cyclo-CRLII(hF) (peptide)
chain: cyclo(CRLII[hPhe])
SMILES: CC[C@H](C)[C@@H]1NC(=O)[C@H](CC(C)C)NC(=O)[C@H](CCCNC(=N)N)NC(=O)[C@H](CS)NC(=O)[C@H](CCc2ccccc2)NC(=O)[C@H]([C@@H](C)CC)NC1=O
In experiment [1], B2 registered a Kd of 1.2 µM.

B3: cyclo-CKLIIF (peptide)
chain: CKLIIF
modifications: head-to-tail cyclic peptide
Turning to B3, the values for the Kd in experiment [1] and in experiment [2] were 2.6 µM and 2.2 µM, respectively.

B4: cyclo-CRLII(Phg) (peptide)
chain: cyclo(CRLII[Phg])
SMILES: CC[C@H](C)[C@@H]1NC(=O)[C@H](CC(C)C)NC(=O)[C@H](CCCNC(=N)N)NC(=O)[C@H](CS)NC(=O)[C@H](c2ccccc2)NC(=O)[C@H]([C@@H](C)CC)NC1=O
B4 displayed a Kd in experiment [1] of 5.8 µM.

B5: cyclo-CRLLIF (peptide)
chain: CRLLIF
modifications: head-to-tail cyclic peptide
B5: the Kd in experiment [1] is 14.5 µM; in experiment [2], 10.2 µM.

B6: cyclo-CRLII(4-iodo)F (peptide)
chain: cyclo(CRLII[Phe(4-I)])
SMILES: CC[C@H](C)[C@@H]1NC(=O)[C@H](CC(C)C)NC(=O)[C@H](CCCNC(=N)N)NC(=O)[C@H](CS)NC(=O)[C@H](Cc2ccc(I)cc2)NC(=O)[C@H]([C@@H](C)CC)NC1=O
In turn, B6 registered a Kd in experiment [3] of 7.2 µM.

B7: cyclo-CRLII(4-OMe)F (peptide)
chain: cyclo(CRLII[Phe(4-OMe)])
B7 had a Kd in experiment [1] of 11.2 µM.

B8: cyclo-CKLLIF (peptide)
chain: CKLLIF
modifications: head-to-tail cyclic peptide
In experiment [1], B8 returned a Kd of 12 µM. This Kd and that of the molecule before are within 1.5-fold of each other.

B9: cyclo-CRLIIF (peptide)
chain: CRLIIF
modifications: head-to-tail cyclic peptide
As to B9, the Kd in experiment [1] came to 3.8 µM.

B10: cyclo-CRVIIF (peptide)
chain: CRVIIF
modifications: head-to-tail cyclic peptide
In the case of B10, the results for the Kd in experiment [1] and in experiment [2] were 65 µM and 123 µM, respectively.

B11: cyclo-CRLII(4-iodo)F (peptide)
chain: cyclo(CRLII[Phe(4-I)])
SMILES: CC[C@H](C)[C@@H]1NC(=O)[C@H](CC(C)C)NC(=O)[C@H](CCCNC(=N)N)NC(=O)[C@H](CS)NC(=O)[C@H](Cc2ccc(I)cc2)NC(=O)[C@H]([C@@H](C)CC)NC1=O
With B11, the Kd in experiment [1] stood at 0.821 µM; in experiment [2], 1.7 µM.

B12: cyclo-CRLII(1-Nal) (peptide)
chain: cyclo(CRLII[1Nal])
SMILES: CC[C@H](C)[C@@H]1NC(=O)[C@H](CC(C)C)NC(=O)[C@H](CCCNC(=N)N)NC(=O)[C@H](CS)NC(=O)[C@H](Cc2cccc3ccccc23)NC(=O)[C@H]([C@@H](C)CC)NC1=O
Molecule B12 registered a Kd in experiment [1] of 1.7 µM.

B13: cyclo-CRLII(4-Bz)F (peptide)
chain: cyclo(CRLII[Phe(4-Bz)])
As for B13, in experiment [1], the Kd is 1.6 µM. This Kd and that of the molecule before are within 1.5-fold of each other.

B14: cyclo-CRLII(4-Pal) (peptide)
chain: cyclo(CRLII[4Pal])
SMILES: CC[C@H](C)[C@@H]1NC(=O)[C@H](CC(C)C)NC(=O)[C@H](CCCNC(=N)N)NC(=O)[C@H](CS)NC(=O)[C@H](Cc2ccncc2)NC(=O)[C@H]([C@@H](C)CC)NC1=O
Turning to B14, the Kd in experiment [1] is 39.6 µM.

B15: cyclo-CRLIIF (peptide)
chain: cyclo(CRLIIF)
modifications: also: Cy5-labeled HIF-1α
B15 returned a Kd in experiment [4] of 4.6 µM.
